1 molecule from US20260209294A1, “USE OF RECOMBINANT PROTEIN IN PREPARING DRUG FOR INHIBITING ANEURYSM” (HUAZHONG UNIVERSITY OF SCIENCE AND TECHNOLOGY, priority 2022, published 2026) can be followed below.

The subject of test [1] is TAC-induced mouse aneurysm model. Kind of test: TAC (transverse aortic constriction)-induced aneurysm model, i.p. recombinant AGGF1 or AGGF1-RDDdel protein. It is filed as in vivo, C57BL/6 mice. An excerpt: RCAs are harvested after 21 days for the histological staining. […] The bar graphs at the bottom show the intima thickness (1st graph), the adventitia thickness (2nd graph), the total arterial wall thickness (3rd graph), a media cell density (4th graph), and the adventitia cell density (5th graph). […] The bar graphs on the right show the percentage of the collagen area and the percentage of the α-SMA positive area. * P<0.05; **, P<0.01; ***, P<0.001; a mouse sample size n=6/group.
RCAs are harvested after 21 days for the histological staining and the western blot analysis. […] Bar graphs below show the percentage of the MCP1-positive cell area and the CD68-positive cell area. […] The β-actin serves as a loading control. […] The β-actin serves as a loading control. *, P<0.05; **, P<0.01; *** P<0.001; a mouse sample size n=6/group, other sample sizes n=4/group.
The bar graph on the right illustrates the luminal diameter of the ascending aorta. An ascending aortic tissue is harvested after 21 days for the histological staining. […] The bar graphs below display the intimal thickness (1st graph), the adventitia thickness (2nd graph), the total arterial wall thickness (3rd graph), the medial cell density (4th graph), and the adventitia cell density (5th graph). *, P<0.05; **, P<0.01; ***, P<0.001; a mouse sample size n=6/group.
The ascending aortic tissue is harvested for the histological staining 21 days after the surgery. […] Below are quantitative bar graphs showing the quantitation of the percentage of the positive area for each corresponding stain. *, P<0.05; **, P<0.01; *** P<0.001; a mouse sample size n≥6/group.
FIG. 7 depicts that the intraperitoneal injection of the purified human AGGF1 protein, dependent on the RDD sequence, attenuates a TAC-induced ascending aortic TGF-β1 maturation and a signaling pathway, as well as the ERK1/2 signaling pathway. The RCAs are harvested after 21 days for the western blot analysis. […] The β-actin serves as a loading control. […] The β-actin serves as a loading control. *, P<0.05; **, P<0.01; ***, P<0.001; sample size n=4/group.
The research team obtained blood vessel samples from the thoracic aorta of 8 normal individuals and 8 patients with the thoracic aortic aneurysm from the hospital. […] Subsequently, the research divided C57BL/6 mice into 6 groups: after sham surgery, they were divided into a buffer group, an AGGF1 group, and an AGGF1-RDD^del group (Sham+buffer, Sham+AGGF1, Sham+AGGF1-RDD^del), and after the TAC surgery, they were divided into a buffer group, an AGGF1 group, and an AGGF1-RDD^del group (TAC+buffer, TAC+AGGF1, TAC+AGGF1-RDD^del), with each group having mice ≥6. Buffer was protein elution solution. 21 days after the TAC surgery, Doppler ultrasound was used to detect vascular luminal diameter, and carotid artery and aorta were collected for histological staining and Western blot to evaluate the effect of AGGF1. Starting from the second day after the surgery, recombinant AGGF1 protein or AGGF1-RDD^del protein was administered through intraperitoneal injection in the mice, with the same dose of EB as control, once every 2 days for 3 weeks. The protein dosage was 0.5 mg/kg.

Test [2] relates to BAPN-induced aortic aneurysm. Kind of test: β-aminopropionitrile (BAPN)-induced aortic aneurysm model. It is filed as in vivo, C57BL/6 male mice. Particulars: BAPN-fed mice. The text has this: FIG. 14 depicts an AGGF1 treatment for a β-aminopropionitrile (BAPN)-induced aortic aneurysm. […] The bar graphs below show the intimal thickness (1st image), the adventitia thickness (2nd image), and the total carotid artery wall thickness (3rd image). […] The bar graphs on the right show the percentage of the positive area for respective immunostaining quantifications. […] The GAPDH serves as a loading control. *, P<0.05; **, P<0.01; ***, P<0.001; n≥8/group for mouse studies, other sample sizes n=4/group.
β-aminopropionitrile is a lysyl oxidase (LOX) inhibitor that is readily soluble in water. Three-week-old mice fed with 0.25% BAPN have a very high incidence of the thoracic aortic aneurysm after 4 weeks. Three-week-old C57BL/6 male mice were divided into 4 groups, with ultrasound detection of the aorta on day 28, followed by euthanasia and collection of the aorta for Western Blotting experiments and histochemical staining.

The mark [3] stands for this setting: after TAC vs buffer, 0.5 mg/kg i.p. once every 2 days for 3 weeks, day 21.
[4] abbreviates: after TAC, 0.5 mg/kg i.p., day 21.
Setting [5] is: regardless of sham or TAC surgery, 0.5 mg/kg i.p.

B1: AGGF1 protein: recombinant human AGGF1 protein with His tag, SEQ ID NO:1, expressed from pet28-AGGF1 in Escherichia coli BL21 (DE3) (protein, listed as Homo sapiens)
chain: MASEAPSPPRSPPPPTSPEPELAQLRRKVEKLERELRSCKRQVREIEKLLHHTERLYQNAESNNQELRTQVEELSKILQRGRNEDNKKSDVEVQTENHAPWSISDYFYQTYYNDVSLPNKVTELSDQQDQAIETSILNSKDHLQVENDAYPGTDRTENVKYRQVDHFASNSQEPASALATEDTSLEGSSLAESLRAAAEAAVSQTGFSYDENTGLYFDHSTGFYYDSENQLYYDPSTGIYYYCDVESGRYQFHSRVDLQPYPTSSTKQSKDKKLKKKRKDPDSSATNEEKDLNSEDQKAFSVEHTSCNEEENFANMKKKAKIGIHHKNSPPKVTVPTSGNTIESPLHENISNSTSFKDEKIMETDSEPEEGEITDSQTEDSYDEAITSEGNVTAEDSEDEDEDKIWPPCIRVIVIRSPVLQIGSLFIITAVNPATIGREKDMEHTLRIPEVGVSKFHAEIYFDHDLQSYVLVDQGSQNGTIVNGKQILQPKTKCDPYVLEHGDEVKIGETVLSFHIHPGSDTCDGCEPGQVRAHLRLDKKDESFVGPTLSKEEKELERRKELKKIRVKYGLQNTEYEDEKTLKNPKYKDRAGKRREQVGSEGTFQRDDAPASVHSEITDSNKGRKMLEKMGWKKGEGLGKDGGGMKTPIQLQLRRTHAGLGTGKPSSFEDVHLLQNKNKKNWDKARERFTENFPETKPQKDDPGTMPWVKGTLE
modifications: His tag
Regarding B1, in test [1] (TAC, 0.5 mg/kg i.p., day 21), the “ascending aortic expansion (FIG. 5)” value is listed as “significantly inhibit” and the “vascular thickening (H&E staining, ascending aorta, FIG. 5)” value is listed as “significantly inhibit”. Also, in test [1] (setting [3]), the “vascular expansion (right carotid artery, FIG. 3)” value is “significantly inhibit” and the “vascular remodeling (right carotid artery, FIG. 3)” value was “significantly inhibit”. Moreover, the “vascular inflammation (MCP-1, CD68; right carotid artery, FIG. 4)” value in test [1] (after TAC vs buffer, 0.5 mg/kg i.p., day 21) is on record as “significantly inhibit”. Further, in test [1] (setting [4]), the “inflammation of the ascending aorta (FIG. 6)” value is listed as “inhibited” and the “remodeling of the ascending aorta (FIG. 6)” value was “inhibited”. In test [1] (setting [5]), the “level of the mature TGFβ1 (Western blot, RCA, FIG. 4)” value is “inhibit”; the “p-ERK1/2 (Western blot, RCA, FIG. 4)” value is on record as “inhibit”; the “p-Smad3 (Western blot, RCA, FIG. 4)” value is recorded as “inhibit”. The “effect on the carotid artery and aorta” value in test [1] (sham group, 0.5 mg/kg i.p. once every 2 days for 3 weeks) was “little effect”. In addition, in test [2], the “incidence of BAPN-induced aortic dissection” value is given as “no effect”; the “level of the mature TGFβ1 (Western blot, ascending aorta)” value is “inhibited”; the “p-ERK (Western blot, ascending aorta)” value is given as “inhibited”; the “p-Smad2 (Western blot, ascending aorta)” value is “inhibited”. Moreover, in test [2], the “p-Smad3 (Western blot, ascending aorta)” value is recorded as “inhibited” and the “survival rate of aneurysm model mice” value is “significantly improve”. For the same molecule, in test [2] (day 28), the aortic inflammation entry was “significantly inhibited”; the aortic remodeling result is listed as “significantly inhibited”; the “aortic thickening (H&E staining)” value is on record as “significantly inhibited”; the “vascular expansion (ascending aorta, ultrasound)” value is recorded as “inhibitory effect”.
